Like-named read-outs stand apart in the source and are kept apart here.
Legend:
PfSir2A = target: T1, PfSir2A (UniProt Q8IE47); experiment: EMSA
T1 sequence: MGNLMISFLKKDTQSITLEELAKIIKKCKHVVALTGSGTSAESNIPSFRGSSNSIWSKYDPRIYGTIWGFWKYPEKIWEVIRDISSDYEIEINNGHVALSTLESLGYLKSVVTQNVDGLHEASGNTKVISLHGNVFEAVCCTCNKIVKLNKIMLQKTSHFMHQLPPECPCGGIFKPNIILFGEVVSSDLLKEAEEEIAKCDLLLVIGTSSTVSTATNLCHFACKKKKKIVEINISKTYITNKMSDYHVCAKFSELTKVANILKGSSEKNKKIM

[1] = target: recombinant human 601-positioned nucleosome with histone H3 acetylated at lysine 9 (H3K9Ac dNuc) (human) (UniProt P68431); experiment: native gel or EMSA

601 nucleosome assembly sequence DNA, 147 bp
Kd (PfSir2A): 4000 nM

H3K9Ac dNuc (human 601-positioned nucleosome)
Kd (PfSir2A; histone H3 K9 acetylated, no DNA modification stated): 1400 nM

B1: Plasmodium falciparum silent information regulator 2A (PfSir2A) (enzyme)
chain: T1 sequence
Kd [1]: 1400 nM
